Consider four molecules from patent publication US9011845B2, “Methods for treatment of inflammatory and infectious viral diseases” (priority 2012, dated 2015).

For one data set, the system named is Adenovirus Type 5. Kind of data set: Adenovirus Type 5 pink-eye clinical disease rabbit eye model. In kind it is in vivo. The conditions noted are these: treatment initiated eight hours after infection; four times daily. The method, then: FIG. 19 is a series of images of rabbit eyes with an Adenoviral infection and treated with control (peg-BSA), cidofovir, or peg-Arginase I drops, according to an example embodiment of the present invention.
In an in vivo rabbit eye model system, the ability of peg-Arginase I to prevent inflammation-associated disease following Adenoviral infection was examined. Rabbit eyes were infected with Adenovirus and eight hours later treatment was initiated. Eyes were treated four times daily with 10 U peg-Arginase I per 50 μl dose. […] FIGS. 20 through 24 illustrate that peg-Arginase I suppresses clinical presentation of disease at all treatment days, including suppression of ocular inflammation and neovascularization. […] These properties of peg-Arginase I illustrate the present invention's utility in preventing numerous vision-threatening ocular diseases that present clinically as inflammation or neovascularization of the eye.

In data set [1] the test system is HSV-1. Nature of the data set: In vivo rabbit eye model of HSV infection. The conditions noted are these: for dendritic or geographic ulceration and clinical appearance: vs controls (PBS or peg-BSA). The source says: FIG. 10 is line graph showing viral production in a rabbit eye model for eyes infected with HSV-1 and treated with controls (peg-BSA and PBS), 1% triflourothymidine, or peg-Arginase I, according to an example embodiment of the present invention.
FIG. 11 is a series of images of rabbit eyes infected with HSV-1 and treated with controls (peg-BSA or PBS), 1% triflourothymidine, or peg-Arginase I, according to an example embodiment of the present invention.
In an in vivo rabbit eye model system, the ability of peg-Arginase I to prevent HSV-mediated inflammation-associated disease was assessed relative to a commonly prescribed ophthalmic antiviral-1% triflourothymidine (TFT). Rabbit eyes were infected with HSV, and infection and disease were allowed to establish prior to beginning treatment. […] FIG. 11 depicts representative overall clinical presentation of ocular herpetic disease. In either of the control (PBS or peg-BSA) treatment groups, severe blinding disease was observed following infection, with presence of severe inflammatory discharge and blinding epithelial defects observed by slit lamp examination.

The test system of data set [2] is acyclovir resistant mutant HSV. Kind of data set: Cell cultures infected with acyclovir resistant mutant HSV: infectious HSV yield. In kind it is cell-based. The conditions noted are these: two different drug resistant mutant HSV viruses. The text has this:
FIG. 8A is a bar graph showing infectious HSV yield for cell cultures infected with an acyclovir resistant mutant HSV, according to an example embodiment of the present invention.
FIG. 8B is a bar graph showing infectious HSV yield for cell cultures infected with a different acyclovir resistant mutant HSV, according to an example embodiment of the present invention.
(§1) In another exemplary embodiment, the present disclosure may be employed to treat pathogenic infections of the eye (e.g., herpes simplex virus types 1 and 2 (HSV-1 and HSV-2) and Adenovirus infections). Embodiments may be used as a treatment against wild-type and/or drug resistant herpes simplex virus (HSV) replication and/or transmission, as well as HSV-mediated inflammation-associated ocular disease.

The subject of data set [3] is surgically-induced corneal lesions. Kind of data set: Surgically debrided cornea (corneal wound healing) rabbit eye model. It counts as in vivo. The text has this:
FIG. 1A is a series of images of rabbit eyes with an 8 mm ([…]) region of cornea surgically debrided and treated with peg vehicle or peg-Arginase I, according to an example embodiment of the present invention.
In an exemplary embodiment, the present disclosure may be employed to treat ocular lesions, which may be caused by accidental or surgical trauma. Application of peg-Arginase I to a corneal lesion accelerates wound healing while reducing or eliminating ocular inflammation, neovascularization and inflammatory discharge.

The subject of data set [4] is HSV-1. Kind of data set: HSV-1 infected cell cultures: infectious viral yield, cytopathic effects, cell-to-cell spread. In kind it is cell-based.
From the text: FIG. 5 is a bar graph showing infectious viral yield for cell cultures infected with HSV-1 and treated with a vehicle (peg vehicle), peg-Arginase I, or different concentrations of acyclovir, according to an example embodiment of the present invention.
FIG. 6 is a series of images showing virus-mediated cytopathic effects on cell cultures treated as described in FIG. 5.
FIG. 7A is a series of images of HSV-plaques showing capacity for cell-to-cell spread following treatment with a vehicle (peg vehicle), peg-Arginase I, or acyclovir, according to an example embodiment of the present invention.
as §1

Data set [5] deals with HSV-1. Kind of data set: Replication of HSV-1 in primary corneal epithelial cell cultures. It counts as cell-based. To be noted: primary human corneal epithelial cells.
From the text: FIG. 9 is a bar graph showing replication of HSV-1 in primary corneal epithelial cell cultures treated with vehicle or peg-Arginase I, according to an example embodiment of the present invention.
as §1

A further data set concerns Adenovirus. Nature of the data set: Cell cultures infected with Adenovirus: cytopathic effects. In kind it is cell-based. The source says:
FIG. 18 is a pair of images of cell cultures infected with Adenovirus and treated with control (peg-BSA) or peg-Arginase I drops, according to an example embodiment of the present invention.
In another exemplary embodiment, the present disclosure may be employed to treat other inflammation-associated ocular diseases, such as those induced by Adenovirus infection. Clinical presentation following Adenoviral infection of the eye may proceed even when antiviral compounds, such as cidofovir, are present. Clinical presentation of Adenovirus-associated ocular disease may be due to uncontrolled inflammatory responses to the infection even following viral clearance.
For orientation: Damage to the host cells serves as the signal in cytopathic effect assays.

The test system of data set [6] is VEGF-mediated migration of primary vascular endothelial cells. Kind of data set: Endothelial cell migration in a scratch wound healing model. It counts as cell-based. The conditions noted are these: twenty-four hour period. The text has this:
FIG. 25A is a series of images comparing effects of treatment with either control (peg-BSA) or peg-Arginase I on endothelial cell migration in a scratch wound healing model, according to an example embodiment of the present invention.
FIG. 25B is a bar graph showing a percentage of unhealed wound area after a twenty-four hour period for the wounds shown in FIG. 25A.
In another exemplary embodiment, the present disclosure may be employed to prevent and resolve corneal neovascularization and vascularization-associated edema. […] A key mediator and initiator of corneal vascularization may be vascular endothelial growth factor (VEGF).

In data set [7] the test system is VEGF-mediated corneal vascularization. Kind of data set: VEGF pellet corneal micropocket rabbit eye model. It counts as in vivo. The conditions noted are these: 10 U per 50 μl drop 4 times daily. The method, then: FIG. 26A is a pair of images of rabbit eyes having a VEGF pellet surgically implanted into a corneal micropocket and treated with vehicle or peg-Arginase I, according to an example embodiment of the present invention.
In an in vivo rabbit eye model system, the ability of peg-Arginase I to prevent VEGF-mediated corneal vascularization was assessed by implanting slow release VEGF pellets within a corneal micropocket 3 mm from the corneal limbus. Eyes were subsequently treated with either peg-Arginase I (right, OD eye) or peg-BSA vehicle control (left, OS eye) 4 times daily at a dose of 10 U per 50 μl drop. […] As shown, peg-Arginase I inhibits vision-threatening corneal vascularization, further enabling peg-Arginase I to prevent and ameliorate vision-threatening aspects of many ocular diseases. Moreover, inhibition of vascularization assists in suppressing deleterious inflammatory responses.

As to `Nc1ccn(C[C@@H](CO)OCP(=O)(O)O)c(=O)n1` [cidofovir, reference compound], the “clinical symptoms / clinical disease presentation” value in the data set with Adenovirus Type 5 is listed as “did not prevent clinical disease presentation”.
For the molecule `O=c1[nH]c(=O)n([C@H]2C[C@H](O)[C@@H](CO)O2)cc1C(F)(F)F` [1% TFT, triflourothymidine, reference compound], the “dendritic or geographic ulceration and clinical appearance” value with HSV-1 [1] is “marked reduction in the presence of dendritic or geographic ulceration, and improved clinical appearance”.
Turning to `Nc1nc2c(ncn2COCCO)c(=O)[nH]1` [acyclovir, reference compound], in [2], the “inhibition of drug-resistant viral replication” value was “not functional against such strains, even at high doses”.

B1: peg-Arginase I: a formulation of arginase I that has been pegylated; applied as topical ophthalmic eye drop (protein, UniProt P05089 1-322, looked up)
Arginase-1: MSAKSRTIGIIGAPFSKGQPRGGVEEGPTVLRKAGLLEKLKEQECDVKDYGDLPFADIPNDSPFQIVKNPRSVGKASEQLAGKVAEVKKNGRISLVLGGDHSLAIGSISGHARVHPDLGVIWVDAHTDINTPLTTTSGNLHGQPVSFLLKELKGKIPDVPGFSWVTPCISAKDIVYIGLRDVDPGEHYILKTLGIKYFSMTEVDRLGIGKVMEETLSYLLGRKKRPIHLSFDVDGLDPSFTPATGTPVVGGLTYREGLYITEEIYKTGLLSGLDIMEVNPSLGKTPEEVTRTVNTAVAITLACFGLAREGNHKPIDYLNPPK
modifications: PEGylated
notes: a formulation of arginase I that has been pegylated; applied as topical ophthalmic eye drop
Take B1: the “Calculated Times of Corneal Epithelium Closure” value was 14 h in [3] (25% closure), 30 h in data set [3] (50% closure) and 38 h in [3] (75% closure). For the same molecule, the “eyes clinically cured of all ocular parameters” value in data set [3] (by day six) was “all eyes clinically cured”. Also, the “time for 100% of eyes to reach clinical cure for epithelial defects relative to peg-vehicle” value in data set [3] (compared with peg-vehicle) is recorded as “two days faster”. For the same molecule, the “Number of Eyes Clinically Cured for Area of Corneal Debridement” value is reported as 0/5 in [3] (day 0); 0/5 in [3] (day 1); 0/5 in [3] (day 2); 3/5 (60%) in [3] (day 3); 5/5 (100%) in data set [3] (day 4); 5/5 (100%) in data set [3] (day 6). For the same molecule, the “Number of Eyes Clinically Cured of All Combined Ocular Clinical Conditions” value in [3] (day 0) is reported as 0/5; in [3] (day 1), 0/5; in [3] (day 2), 0/5; in [3] (day 3), 0/5; in data set [3] (day 4), 4/5 (80%); in data set [3] (day 6), 5/5 (100%). In addition, the “Number of Eyes Clinically Cured of Corneal Neovascularization” value in data set [3] (day 0), in data set [3] (day 1), in data set [3] (day 2), in [3] (day 3), in data set [3] (day 4) and in data set [3] (day 6) was 5/5 (100%) throughout. Besides, the “Number of Eyes Clinically Cured of Scleral Inflammation (Injection)” value in [3] (day 0), in data set [3] (day 1), in [3] (day 2), in [3] (day 3), in [3] (day 4) and in [3] (day 6) was 5/5 (100%) each time. Besides, in [3] (day four), the “eyes exhibiting no symptomology from the surgically-induced trauma” value was 80%. Further, the “virus-associated cytopathic effects, viral transmission to uninfected cells, cell-to-cell spread” value in the data set with HSV-1 [4] (HSV-1 infected cell cultures) was “blocked virus-associated cytopathic effects, viral transmission to uninfected cells, and cell-to-cell spread”. In the data set on HSV-1 [4] (even at high multiplicities of infection (MOIs)), the “inhibition of production of infectious virus” value was “greater than 1000 fold”. In addition, in the data set with HSV-1 [4] (infectious viral yield, HSV-1), the “effectiveness compared with acyclovir” value was “at least as effective as high doses of a common anti-herpetic, acyclovir”. In addition, in [2], the “inhibition of drug-resistant viral replication” value is given as “highly efficient at inhibiting drug-resistant viral replication”. Besides, the antiviral effects entry in the data set with HSV-1 [5] is listed as “antiviral effects of peg-Arginase I were also observed”. Further, the “clinical presentation of disease” value with HSV-1 [1] (five days of treatment) was “statistically improved clinical presentation of disease”. Moreover, in the data set on HSV-1 [1] (treatment begun after infection established (day three post infection titers matched)), the “infectious viral titers upon treatment” value is recorded as “barely detectable”. Besides, the “dendritic or geographic ulceration and clinical appearance” value in the data set on HSV-1 [1] is “marked reduction in the presence of dendritic or geographic ulceration, and improved clinical appearance”. Further, the toxicity to cells entry in the data set on Adenovirus (Adenovirus infected cell cultures) is on record as “no toxicity to cells”. The “Adenovirus-mediated cellular cytopathic effects” value in the data set with Adenovirus (vs peg-BSA control) is on record as “prevents Adenovirus-mediated cellular cytopathic effects”. For the same molecule, the “clinical symptoms / clinical disease presentation” value with Adenovirus Type 5 is given as “fewer clinical symptoms”. The “VEGF-mediated migration of primary vascular endothelial cells” value in data set [6] is listed as “prevents VEGF-mediated migration of primary vascular endothelial cells”. In [7], the “corneal edema resulting in corneal clouding and epithelial defects” value is “prevented the appearance of corneal edema”. Further, in data set [7] (compared to peg-BSA treated controls), the “extent and areas of neovascularization of the cornea” value is listed as “significantly reduced”.
